Laboratory results from the nanobody polyreactivity screen of Harvey et al. (2022).

Assay: yeast display, Sf9 membrane polyspecificity reagent, FACS + sequencing; frameworks hold sequencing errors
How it was run: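 Genes from sorted yeast were amplified by colony PCR, read by MiSeq 2 × 250 sequencing and filtered on CDR length. These cells carried a synthetic nanobody library in Saccharomyces cerevisiae BJ5465 and were sorted by FACS into low and high (top ~1%) gates on anti-HA and streptavidin fluorescence. Polyreactivity is labelled according to the gate of origin.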

Sequence: QVQVVESGGGLVQAGGSLRLSCAASGSTFGHNAMGWYRQAPGKERELVAAIDSGDGTTYADSVKGRFTISRDNAKNTVYLQMNSLKPEDTAVYYCNADGLGGADPEYLWYPVPDYDYWGQGTQVTVSS
- polyreactivity (PSR sort gate): low polyreactivity

Sequence: QVQVVESGGGLVQAGGSLRLSCAASGSTFVIYAMGWYRQAPGKEMELVAGITYSGGRTYYADSVKGRFTISRDNAKNTVYLHMNSLKPEDTAVYYCNARSTWPSGRYAHYRRYYYWGQGTQVTVSS
- polyreactivity (PSR sort gate): high polyreactivity

Sequence: QVQVVESGGGLVQAGGSLRLSCAPSGRIFQLYAMGRYRQAPRKERELVAVISSGDRTYYADSVKGRFTISRDNAKNTVYLQMNSLKPEDTAVYYCAALGWQSGGSRWHGEYDYWGQGTQVTVSS
- polyreactivity (PSR sort gate): low polyreactivity

Sequence: QVQVVESGGGLVQAGGSLSLSCAASGGIFHSNAMGWYRQAPGKERELVAAISWNTGSTYYADSVKGRFTISRDNAKQTVYLQMNSLKPEDTAVYYCAASYRSPWLRYDYWGQGTQVTVSS
- polyreactivity (PSR sort gate): high polyreactivity

Sequence: QVQVVESGGGLVQAGGSLSLSCAASGSTVGKYAMGWYRPAPGKERELVASITWSGASTFYADSVKGRFTISRDTAKTTVYLQLNSLKPEDTAVYYCAARSYKSYYIFDYWGQGTQVTVSS
- polyreactivity (PSR sort gate): low polyreactivity

Sequence: QVQVVESRGGLVQAGGSLRLSCAASGLIFLGYAMGWYRQAPGKERELVASIRTGGSTSYADSVKGRFTISRDNENNRVYLQMNSLKPEDTAVYYCAADRGRPNLPGDYWGQGSQVTVSS
- polyreactivity (PSR sort gate): low polyreactivity

Sequence: QVRLVESGGGLVQAGCSLRLSCAASGRTFGRYAIGWYRQAPGTERELVAAITGSGGSTYYADSVKGRFTISRDNAKNTVYLQMNSLKPVDTPVYYCNAGWRLGRGYWGQGTQVTLSS
- polyreactivity (PSR sort gate): high polyreactivity

Sequence: QVRLVESGGGLVQAGCSRRLSCAATGRFFAYNSMGWYRQAPGKEMEWVAAISSTGGSTYYADSVKGRFTISRDNAKNTVYLQMNSLKTEDTAVYYCAAAWCYRYSSYDYWGQGTQVTVSS
- polyreactivity (PSR sort gate): low polyreactivity

Sequence: QVRLVESGGGLVQAGGRLRLSCAASGRIFSSYSMGWYRQAPGKERELVASISWSGVRTRYADSVKGRFTISRDNAKNTVYLQLNSLKPEDTAVYYCAAVVPYYYRSPSNHMGYWGQGTQVTVSS
- polyreactivity (PSR sort gate): high polyreactivity

Sequence: QVRLVESGGGLVQAGGSLRLSCAASGFTFSPYAMGWYRQAPGKERELVAAITSSGGSTYYADSVKGRFTISRDNAKNTVYLQMNSLKPDDTAVSSCAKEIRYSSSVSESDYWGQGTQVSVSS
- polyreactivity (PSR sort gate): high polyreactivity

Sequence: QVRLVESGGGLVQAGGSLRLSCAASGRIFQYYAMGWYRQAPGKERELVASITSGGGSTYYADSVKGRFTISRDNAKNTVYVQMNSLKPEDSAVYYCAVDIYNYSNVHYYYWGQGTQVTVSS
- polyreactivity (PSR sort gate): low polyreactivity

Sequence: QVRLVESGGGLVQAGGSLRLSCAASGSIFDVYAMGCYRQAPGKERELVATISYGDSSTYYADSVKGRFTISRDTAKNTVYLQMNSLKPEDTAVYYCAADYLTAPRWRQWGEMDYWGQGTQVTVSS
- polyreactivity (PSR sort gate): low polyreactivity

Sequence: QVRLVETGGGLVQAGGSLRLSCAASGSTFPHYTMGWYIQAHGKERELVAVISRSGRTYYADSVKGRFTISRDNAKNTFYLQMNSLKPEDTAVYYCDVLVGRLVWSYNHWGQVTQVTVSS
- polyreactivity (PSR sort gate): high polyreactivity

Sequence: QVWLQESGGGLVQACGSLSLSCAASGTISRDIFMGWYRQAPGKEREFVATIAQGGITNYADSVKGRFTISRDNAKNTVYLQKNSVKPGDTAVYYCEALDGNCYWFYYWGQGTQVTVSS
- polyreactivity (PSR sort gate): high polyreactivity

Sequence: QYQLVESGGGLVQAGGSLRLSCAASGSTFRYYAMGWYRQAPGKETELVAAISTRGGTTYYADSVKGRFTISRDNAKNTVYLQMNSLKPEDTAVYYCAAEALVPLIYYYWGQGTQVTVSS
- polyreactivity (PSR sort gate): low polyreactivity

Sequence: REQLQESGGGLVQAGGSLRLSCAASGTIFIRGDMGWYRQSPGKEREFVATIDTGSNTYYADSEKGRFTISRDNAINAVYLQMYCLKPGYTAVYYCVVDYQLSGRLRYWGQGTQVTLSS
- polyreactivity (PSR sort gate): low polyreactivity

Sequence: RVHLQESGGGLVQAGGSLRLSCAASGTIFIRGDMGWYRQAPGKEREFVATIDTVSNTYYADSEKGRFTISRDNAKNAVYLQMNCLNPGDTAVYYCVVDYQLAGRLRYWGQGTQVTLSS
- polyreactivity (PSR sort gate): low polyreactivity
